The text below walks through data of paper PMC10397247.

For one assay, the target named is T1, 4H3858-bA.
T1 chain: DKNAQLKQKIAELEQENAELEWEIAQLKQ
Briefly: two-hybrid library CCNG1.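 Further: natural log of median RNA to DNA barcode read ratio; higher means stronger binding.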

A further assay has as its target T2, 4H3974-bA.
T2 chain: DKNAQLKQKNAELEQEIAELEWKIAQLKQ
Briefly: two-hybrid library CCNG1.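 Further: natural log of median RNA to DNA barcode read ratio; higher means stronger binding.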

Another assay concerns the target T3, 4H570-bA.
T3 chain: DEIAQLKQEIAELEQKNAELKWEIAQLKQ
Briefly: two-hybrid library CCNG1.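 Further: natural log of median RNA to DNA barcode read ratio; higher means stronger binding.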

For another assay, the target named is T4, 4H850-bA.
T4 chain: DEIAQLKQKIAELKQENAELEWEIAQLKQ
Description: two-hybrid library CCNG1.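 Further: natural log of median RNA to DNA barcode read ratio; higher means stronger binding.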

For the next assay, the target named is T5, 4H2553-AA.
T5 chain: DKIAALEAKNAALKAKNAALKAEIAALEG
Briefly: two-hybrid library CCmax.

The target of a further assay is T6, 4H2611-AA.
T6 chain: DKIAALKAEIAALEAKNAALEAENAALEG
Briefly: two-hybrid library CCmax. The settings on record: mean of both orientations.

The next assay concerns the target T7, 4H2620-AA.
T7 chain: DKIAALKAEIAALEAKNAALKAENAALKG
Briefly: two-hybrid library CCmax. The settings on record: mean of both orientations.

The next assay addresses T8, 4H2648-AA.
T8 chain: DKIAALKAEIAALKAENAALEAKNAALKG
Briefly: two-hybrid library CCmax. The settings on record: mean of both orientations.

A further assay deals with T9, 4H2907-AA.
T9 chain: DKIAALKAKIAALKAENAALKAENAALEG
Description: two-hybrid library CCmax. Conditions: mean of both orientations.

The target in the next assay is T10, 4H3056-AA.
T10 chain: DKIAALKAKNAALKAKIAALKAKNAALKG
Briefly: two-hybrid library CCmax. Conditions: mean of both orientations.

The target of a further assay is T11, 4H3133-AA.
T11 chain: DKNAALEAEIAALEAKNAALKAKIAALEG
Description: two-hybrid library CCmax. Conditions: mean of both orientations.

A further assay deals with T12, 4H3162-AA.
T12 chain: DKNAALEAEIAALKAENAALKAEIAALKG
Description: two-hybrid library CCmax. Conditions: mean of both orientations.

In the next assay the target is T13, 4H32-AA.
T13 chain: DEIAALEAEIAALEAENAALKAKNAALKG
Briefly: two-hybrid library CCmax. Conditions: mean of both orientations.

The next assay has as its target T14, 4H3378-AA.
T14 chain: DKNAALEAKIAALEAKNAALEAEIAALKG
Description: two-hybrid library CCmax. The settings on record: mean of both orientations.

Another assay addresses T15, 4H340-AA.
T15 chain: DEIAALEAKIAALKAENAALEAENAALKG
Description: two-hybrid library CCmax. Conditions: mean of both orientations.

Another assay deals with T16, 4H3413-AA.
T16 chain: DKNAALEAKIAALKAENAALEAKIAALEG
Description: two-hybrid library CCmax. Conditions: mean of both orientations.

The next assay has as its target T17, 4H3588-AA.
T17 chain: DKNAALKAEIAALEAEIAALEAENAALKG
Briefly: two-hybrid library CCmax. Conditions: mean of both orientations.

The next assay concerns the target T18, 4H3606-AA.
T18 chain: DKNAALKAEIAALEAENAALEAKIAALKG
Description: two-hybrid library CCmax. Conditions: mean of both orientations.

The target of a further assay is T19, 4H3631-AA.
T19 chain: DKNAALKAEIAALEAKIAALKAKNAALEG
Briefly: two-hybrid library CCmax. The settings on record: mean of both orientations.

A further assay deals with T20, 4H3697-AA.
T20 chain: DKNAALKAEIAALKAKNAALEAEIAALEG
Briefly: two-hybrid library CCmax. The settings on record: mean of both orientations.

The target in the next assay is T21, 4H3718-AA.
T21 chain: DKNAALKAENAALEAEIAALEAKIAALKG
Briefly: two-hybrid library CCmax. The settings on record: mean of both orientations.

The target of a further assay is T22, 4H384-AA.
T22 chain: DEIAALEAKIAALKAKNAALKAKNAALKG
Briefly: two-hybrid library CCmax. Conditions: mean of both orientations.

In the next assay the target is T23, 4H3865-AA.
T23 chain: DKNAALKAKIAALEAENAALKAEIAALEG
Description: two-hybrid library CCmax. The settings on record: mean of both orientations.

The target of another assay is T24, 4H697-AA.
T24 chain: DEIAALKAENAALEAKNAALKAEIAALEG
Briefly: two-hybrid library CCmax. The settings on record: mean of both orientations.

The next assay has as its target T25, 4H982-AA.
T25 chain: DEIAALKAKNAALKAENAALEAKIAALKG
Description: two-hybrid library CCmax. The settings on record: mean of both orientations.

The target of another assay is T26, P6SC2.
T26 chain: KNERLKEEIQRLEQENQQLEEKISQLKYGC
Briefly: two-hybrid library CC1.

A further assay has as its target T27, P6mS.
T27 chain: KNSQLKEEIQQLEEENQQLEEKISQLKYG
Description: two-hybrid library CC1. The settings on record: mean of both orientations.

The target of a further assay is T28, P7.
T28 chain: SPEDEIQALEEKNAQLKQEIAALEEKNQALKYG
Briefly: two-hybrid library CC1. The settings on record: mean of both orientations.

In another assay the target is T29, P7mS.
T29 chain: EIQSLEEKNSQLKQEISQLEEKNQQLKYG
Description: two-hybrid library CC1. Conditions: mean of both orientations.

In a further assay the target is T30, P8.
T30 chain: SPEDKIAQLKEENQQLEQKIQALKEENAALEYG
Description: two-hybrid library CC1. Conditions: mean of both orientations.

For another assay, the target named is T31, P8mS.
T31 chain: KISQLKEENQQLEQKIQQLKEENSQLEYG
Description: two-hybrid library CC1. Conditions: mean of both orientations.

For a further assay, the target named is T32, P9.
T32 chain: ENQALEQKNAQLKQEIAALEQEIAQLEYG
Description: two-hybrid library CC1. The settings on record: mean of both orientations.

Substitutions are numbered along the chain they refer to.

B1: 4H3858-bA (peptide)
chain: DKNAQLKQKIAELEQENAELEWEIAQLKQ
Consider B1, for which the interaction score was 0.569 with 4H3858-bA, -0.665 with 4H3974-bA, 1.16 in the assay with 4H570-bA and -0.964 with 4H850-bA.

B2: 4H2553-AA (peptide)
chain: DKIAALEAKNAALKAKNAALKAEIAALEG
For the molecule B2, the interaction score was -1.66 in the assay with 4H2553-AA; -1.68 with 4H2611-AA; -1.7 with 4H2620-AA; -0.498 in the assay with 4H2648-AA; -1.73 with 4H2907-AA; -1.68 with 4H3056-AA. For the same molecule, the interaction score with 4H3133-AA was -2.05; in the assay with 4H3162-AA, -1.5; in the assay with 4H32-AA, -0.574; with 4H3378-AA, -1.98; with 4H340-AA it was -0.687; with 4H3413-AA it was -1.58. The interaction score with 4H3588-AA was -1.93; with 4H3606-AA, 1.86; with 4H3631-AA it was -1.73; with 4H3697-AA, -2.21; with 4H3718-AA, 1.12; in the assay with 4H384-AA, -1.95. The interaction score with 4H3865-AA is -1.79; with 4H697-AA it was -1; with 4H982-AA, 1.15.

B3: P6SC2 (peptide)
chain: T26 chain
With B3, the interaction score was -2.13 in the assay with P6SC2; -2.75 with P6mS; 0.0928 with P7; -1.75 with P7mS; -1.84 in the assay with P8; -2.54 with P8mS. The interaction score with P9 was -1.47.
